In patent publication US20190225650A1, “PEPTIDOMIMETIC MACROCYCLES AND USE THEREOF IN REGULATING HIF1ALPHA” (AILERON THERAPEUTICS, INC., priority 2013, published 2019):
Bridge positions count the residues as written; N and C are the ends. Square brackets hold non-standard residues; d marks the D form. Peptide text beside a SMILES is read from it. S5 = C=CCCC[C@](C)(N)C(=O)O; Nle = CCCC[C@H](N)C(=O)O

B1: SP-6 (peptide)
peptide: Ac-FIDEEVL[Nle][S5]LVI[S5][Nle]ALDRI-NH2
modifications: staple 9-13
SMILES: CCCC[C@H](NC(=O)[C@H](CC(C)C)NC(=O)[C@@H](NC(=O)[C@H](CCC(=O)O)NC(=O)[C@H](CCC(=O)O)NC(=O)[C@H](CC(=O)O)NC(=O)[C@@H](NC(=O)[C@H](Cc1ccccc1)NC(C)=O)[C@@H](C)CC)C(C)C)C(=O)N[C@@]1(C)CCCC=CCCC[C@@](C)(C(=O)N[C@@H](CCCC)C(=O)N[C@@H](C)C(=O)N[C@@H](CC(C)C)C(=O)N[C@@H](CC(=O)O)C(=O)N[C@@H](CCCNC(=N)N)C(=O)N[C@H](C(N)=O)[C@@H](C)CC)NC(=O)[C@H]([C@@H](C)CC)NC(=O)[C@H](C(C)C)NC(=O)[C@H](CC(C)C)NC1=O
B2: SP-89 (peptide)
peptide: Ac-EVLM[S5]LVI[S5]MGLDRIKELPELWL-NH2
modifications: staple 5-9
SMILES: CC[C@H](C)[C@H](NC(=O)[C@H](CCCNC(=N)N)NC(=O)[C@H](CC(=O)O)NC(=O)[C@H](CC(C)C)NC(=O)CNC(=O)[C@H](CCSC)NC(=O)[C@]1(C)CCCC=CCCC[C@](C)(NC(=O)[C@H](CCSC)NC(=O)[C@H](CC(C)C)NC(=O)[C@@H](NC(=O)[C@H](CCC(=O)O)NC(C)=O)C(C)C)C(=O)N[C@@H](CC(C)C)C(=O)N[C@@H](C(C)C)C(=O)N[C@@H]([C@@H](C)CC)C(=O)N1)C(=O)N[C@@H](CCCCN)C(=O)N[C@@H](CCC(=O)O)C(=O)N[C@@H](CC(C)C)C(=O)N1CCC[C@H]1C(=O)N[C@@H](CCC(=O)O)C(=O)N[C@@H](CC(C)C)C(=O)N[C@@H](Cc1c[nH]c2ccccc12)C(=O)N[C@@H](CC(C)C)C(N)=O

Columns and labels:
[1] = biological target: T1, GST-tagged p300 CH1 domain (AAs 302-423) / HIF1α (AAs 788-826) (Homo sapiens, UniProt Q09472); test: Biolayer interferometry competition for binding to p300 CH1 domain; details: 300 nM p300 CH1
T1 construct: GST-tagged p300 CH1 domain (AAs 302-423)
T1 sequence (Q09472 302-423): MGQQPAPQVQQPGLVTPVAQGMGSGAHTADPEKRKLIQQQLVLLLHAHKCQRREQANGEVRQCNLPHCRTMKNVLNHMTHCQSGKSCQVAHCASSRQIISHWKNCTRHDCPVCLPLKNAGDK
Method: (§1) Biolayer inferometry (ForteBio, Menlo Park Calif.) was used to measure competition of SP-6 for HIF1α (AAs 788-826). Biotinylated HIF1α peptide was captured on […] biosensor tip. The association of 300 nM GST-tagged p300 CH1 domain (AAs 302-423) in the presence or absence of varying concentrations of SP-6 was measured for 240 s. Dissociation was monitored for a minimum of 200 s in the absence of free p300 or stapled peptide. Binding of p300 to biosensor immobilized HIF1α target was analyzed with instrument software and total response (R) was proportional to binding.
Inhibition of p300 binding was calculated as % inhibition=[…]. A concentration of 10 μM SP-6 blocked 99% of the total binding. The inhibition was dose-dependent, with 2 μM inhibiting 50% of p300/HIF1α binding.

[2] = biological target: T2, GST-tagged p300 CH1 domain (AAs 302-423) (UniProt Q09472 302-423); test: BLI competition, 300 nM GST-p300 CH1 on immobilised HIF1α 788-826
T2 construct: range 302-423; not shown: GST tag
T2 sequence (Q09472 302-423 limits assumed): as the sequence (Q09472 302-423) above
Method: as §1, with “Biotinylated” for “Biolayer inferometry (ForteBio, Menlo Park Calif.) was used to measure competition of SP-6 for HIF1α (AAs 788-826). Biotinylated”
A concentration of 10 μM SP-6 blocked 99% of the total binding. The inhibition was dose-dependent, with 2 μM inhibiting 50% of p300/HIF1α binding.

[3] = biological target: T3, His6-tagged p300 (AA 323-423) (UniProt Q09472 323-423); test: TR-FRET HIF1a/p300 displacement; grade = IC50 <=200 nM
T3 construct: range 323-423; also called p300-CH; not shown: His6 tag
T3 sequence (Q09472 323-423 limits assumed): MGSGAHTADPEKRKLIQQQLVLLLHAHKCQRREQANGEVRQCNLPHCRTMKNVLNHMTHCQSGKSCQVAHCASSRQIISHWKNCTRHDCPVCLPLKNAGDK
Method: The ability of peptides to displace HIF1α c-terminal trans-activation domain from p300-CH was measured by a TR FRET assay. […] The complex was diluted to 300 nM final in complete assay media and competitor peptides were added. The complete assay media contained 150 mM NaCl (Sigma +S5150 or equivalent), 20 mM HEPES pH 7.4 (Boston Bioproducts, Ashland, Mass.; #BB-2076), 7.5 mM CHAPS (Thermo #28300 or equivalent), and 1 mM DTT. Protein and peptide were incubated at room temperature for 1 hour before the addition of anti-Flag-K and anti-6×HIS-D2 (CisBio, Bedford Mass.) HTRF reconstitution buffer (50 mM Phosphate pH 7, 0.8 Potassium Flouride, BSA 0.2%)¹ to a final concentration of 0.5 μM and 4 nM respectively. The reaction continued for an additional two hours at room temperature. The reaction was read on a TECAN F500 plate reader with settings recommended by CisBio. The ratio of donor to acceptor fluorescence was calculated. The resulting data was analyzed with Graphpad Prism 5.0. IC50 values were calculated for both proteins using the One Site Fit-LogIC50 equation and presented in the column “IC₅₀ (nM) (HIF1α_p300 Displacement+CHAPS)” of Table 6. ¹ Cisbio USA, Bedford, Mass.; 61HISDLB (lot 007A), 61FG2KLB (024A), HTRF Buffer (62RB3RDF)

| Molecule | inhibition at 2 µM ([1]; 2 μM) [%] | inhibition at 10 µM ([1]; 10 μM) [%] | IC50 [2] [nM] | IC50 [3] [nM] |
| --- | --- | --- | --- | --- |
| CCCC[C@H](NC(=O)[C@H](CC(C)C)NC(=O)[C@@H](NC(=O)[C@H](CCC(=O)O)NC(=O)[C@H](CCC(=O)O)NC(=O)[C@H](CC(=O)O)NC(=O)[C@@H](NC(=O)[C@H](Cc1ccccc1)NC(C)=O)[C@@H](C)CC)C(C)C)C(=O)N[C@@]1(C)CCCC=CCCC[C@@](C)(C(=O)N[C@@H](CCCC)C(=O)N[C@@H](C)C(=O)N[C@@H](CC(C)C)C(=O)N[C@@H](CC(=O)O)C(=O)N[C@@H](CCCNC(=N)N)C(=O)N[C@H](C(N)=O)[C@@H](C)CC)NC(=O)[C@H]([C@@H](C)CC)NC(=O)[C@H](C(C)C)NC(=O)[C@H](CC(C)C)NC1=O [SP-6] (Ac-FIDEEVL[Nle][S5]LVI[S5][Nle]ALDRI-NH2; staple 9-13) | 50 | 99 | – | – |
| B1 | – | – | 2000 | ≤ 200 |
| B2 | – | – | – | ≤ 200 |
